{
  "source": "patent US7888089B2",
  "about": "“eNOS mutations useful for gene therapy and therapeutic screening” (Yale University, priority 1999, dated 2011)",
  "key": {"eNOS [1]": {"system": "eNOS", "assay": "Hemoglobin capture assay of NO production by purified eNOS", "type": "biochemical, bovine", "details": "for Kcat (substrate Arginine, Hemoglobin capture): rate of NO production vs L-arginine, optimal conditions", "description": "Assay for NOS Activity—NO production was measured by the hemoglobin capture assay as described (Kelm et al., 1988). Briefly, the reaction mixture contained eNOS (0.5-2.5 μg), oxyhemoglobin (8 μM), L-arginine (100 μM), BH4 (5 μM), CaCl2 (120 μM), calmodulin (120-200 nM), and NADPH (100 μM) in HEPES buffer (50 mM), pH 7.4. […] Under these conditions, free calcium was calculated using the WinMAXC program, version\nNOS activity was monitored for linearity over 2 min at 401 nm, and NO production was calculated based on the change of absorbance using the extinction coefficient of 60 mM^−1 cm^−1. All reactions were carried out at 23° C., and each data point represents 3-8 observations. The extinction coefficient of 0.0033 μM^−1 cm^−1 at 276 nm was used for determination of calmodulin concentration. […] When the inactivation of eNOS was determined by the addition of EGTA (200-800 μM) to the reaction mixture, chelator was added 1 min after initiation of the reaction by NADPH. Identical conditions were used when NADPH-cytochrome c reductase activity was examined. These reactions contained CaM (120 nM) and CaCl2 (200 μM) in a 0.5-ml volume with eNOS (0.5 μg)."}, "eNOS [2]": {"system": "eNOS", "assay": "Conversion of L-arginine to L-citrulline by purified eNOS", "type": "biochemical, bovine", "details": "for Kcat (CaM, L-Citrulline): CaM activation of NOS activity", "description": "The conversion of L-arginine to L-citrulline was assayed as described previously by Bredt et al. (1990). Briefly, eNOS (0.25-2 μg) was incubated for 3-10 min at 23° C. in the following reaction mixture: 3 pmol of L-[3H]arginine (55 Ci/mmol), 10-300 μM arginine, 1 mM NADPH, 120-200 nM calmodulin, 2 mM CaCl2, and 30 μM BH4 in a final reaction volume of 50-100 μl. The reaction was terminated by the addition of 0.5 ml of 20 mM HEPES, pH 5.5, containing 2 mM EGTA and EDTA. The reaction mixture was placed over Dowex AG50WX8, and the flow-through was counted on a Packard 1500 liquid scintillation analyzer."}, "cytochrome c": {"system": "cytochrome c", "assay": "NADPH-cytochrome c reductase activity of purified eNOS", "type": "biochemical", "details": "for Kcat (CaM, Cytochrome c): CaM activation of cytochrome c reduction; for EC50: cytochrome c reduction; for Km: Km for NADPH; for Kcat − CaM (NADPH, Cytochrome c) / Kcat + CaM (NADPH, Cytochrome c): NADPH dependence", "description": "Assays for Reductase Activity—NADPH-cytochrome c reductase activity and 2,6-dichlorophenolindophenol (DCIP) reduction were measured as a change in absorbance at 550 nm as described previously by Martasek et al. (1999) and Masters et al. (1967) using an extinction coefficient of 0.021 μM^−1 cm^−1 for both cytochrome c and DCIP. Briefly, a reaction mixture (1 ml) contained either cytochrome c (90 μM); DCIP (36 μM), HEPES buffer (50 mM) at pH 7.6, NaCl (250 mM), NADPH (100 μM), calmodulin (120 nM), and CaCl2 (200 μM); or other substances as indicated. The reaction was monitored for 60 s (at 23° C.) after the addition of eNOS. When inactivation of reductase activity was determined by the addition of EGTA (200-800 μM), chelator was added 1 min after initiation of the reaction and monitored for an additional 1 min. The reaction contained HEPES buffer (50 mM) at pH 7.6, CaM (120 nM), and CaCl2 (200 μM) and was initiated with NADPH (100 μM). No NaCl was added in experiments that examined EGTA inactivation of eNOS to mimic the conditions used in the hemoglobin capture experiments. […] Determination of the calcium EC50 for eNOS was performed as described above for the hemoglobin capture assay."}, "eNOS [3]": {"system": "eNOS", "assay": "NOS activity (3H-L-arginine to 3H-L-citrulline) in COS cell lysates", "type": "biochemical, bovine", "details": "COS cells transfected with eNOS only, n=3", "description": "NOS activity assays: The conversion of ^3H-L-arginine to ^3H-L-citrulline was used to determine NOS activity in COS cell or endothelial cell lysates as previously described by Garcia-Cardena et al. (1998)."}, "Akt [4]": {"system": "Akt", "assay": "In vitro kinase reaction with Akt immunoprecipitated from COS cells", "type": "biochemical", "details": "HA-Akt immunoprecipitate, n=3"}, "Akt [5]": {"system": "Akt", "assay": "32P phosphorylation of eNOS in intact transfected COS cells", "type": "cell-based", "details": "intact COS cells, 32P-orthophosphate", "description": "Phosphorylation studies in vivo and in vitro: For in vivo phosphorylation studies, COS cells were transfected with the cDNAs for wild-type or S635, 1179A eNOS and HA-Akt overnight. 36 hrs after transfection, cells were placed into dialyzed serum replete, phosphate-free Dulbecco's minimum essential medium supplemented with 80 μCi/ml of ^32P orthophosphoric acid for 3 hr. Some cells were pretreated with wortmannin (500 nM) in the phosphate-free media for 1 hr and during the labeling."}},
  "note": "“Also recorded” adds a separate entry of the source. Read-outs that look alike come from different tables or passages of the source.",
  "data": [
    {"molecule": "Wild type: Wild type bovine endothelial nitric oxide synthase (eNOS) (protein, UniProt P29473 2-1205, looked up) Nitric oxide synthase 3: GNLKSVGQEPGPPCGLGLGLGLGLCGKQGPASPAPEPSRAPAPATPHAPDHSPAPNSPTLTRPPEGPKFPRVKNWELGSITYDTLCAQSQQDGPCTPRCCLGSLVLPRKLQTRPSPGPPPAEQLLSQARDFINQYYSSIKRSGSQAHEERLQEVEAEVASTGTYHLRESELVFGAKQAWRNAPRCVGRIQWGKLQVFDARDCSSAQEMFTYICNHIKYATNRGNLRSAITVFPQRAPGRGDFRIWNSQLVRYAGYRQQDGSVRGDPANVEITELCIQHGWTPGNGRFDVLPLLLQAPDEAPELFVLPPELVLEVPLEHPTLEWFAALGLRWYALPAVSNMLLEIGGLEFSAAPFSGWYMSTEIGTRNLCDPHRYNILEDVAVCMDLDTRTTSSLWKDKAAVEINLAVLHSFQLAKVTIVDHHAATVSFMKHLDNEQKARGGCPADWAWIVPPISGSLTPVFHQEMVNYILSPAFRYQPDPWKGSATKGAGITRKKTFKEVANAVKISASLMGTLMAKRVKATILYASETGRAQSYAQQLGRLFRKAFDPRVLCMDEYDVVSLEHEALVLVVTSTFGNGDPPENGESFAAALMEMSGPYNSSPRPEQHKSYKIRFNSVSCSDPLVSSWRRKRKESSNTDSAGALGTLRFCVFGLGSRAYPHFCAFARAVDTRLEELGGERLLQLGQGDELCGQEEAFRGWAKAAFQASCETFCVGEEAKAAAQDIFSPKRSWKRQRYRLSTQAEGLQLLPGLIHVHRRKMFQATVLSVENLQSSKSTRATILVRLDTAGQEGLQYQPGDHIGICPPNRPGLVEALLSRVEDPPPPTESVAVEQLEKGSPGGPPPSWVRDPRLPPCTLRQALTFFLDITSPPSPRLLRLLSTLAEEPSEQQELETLSQDPRRYEEWKWFRCPTLLEVLEQFPSVALPAPLLLTQLPLLQPRYYSVSSAPNAHPGEVHLTVAVLAYRTQDGLGPLHYGVCSTWLSQLKTGDPVPCFIRGAPSFRLPPDPYVPCILVGPGTGIAPFRGFWQERLHDIESKGLQPAPMTLVFGCRCSQLDHLYRDEVQDAQERGVFGRVLTAFSREPDSPKTYVQDILRTELAAEVHRVLCLERGHMFVCGDVTMATSVLQTVQRILATEGDMELDEAGDVIGVLRDQQRYHEDIFGLTLRTQEVTSRIRTQSFSLQERHLRGAVPWAFDPPGPDTPGP", "values": [
      {"measurement": "NO production after calcium chelation with EGTA", "setting": "eNOS [1]; 600 μM EGTA, 200 μM calcium, listed as wild type eNOS", "value": "no activity was detected; also recorded: no detectable activity"},
      {"measurement": "EC50", "setting": "eNOS [1]; EC50 for free calcium, NO production, 250 nM CaM, read-out: EC50 (Ca2+, Hemoglobin capture, 100 mM KCl)", "value": 310, "unit": "nM"},
      {"measurement": "Km", "setting": "eNOS [1]; Km for L-arginine, read-out: Km (substrate Arginine, Hemoglobin capture)", "value": 1.8, "unit": "µM"},
      {"measurement": "Km", "setting": "eNOS [1]; Km for NADPH, in presence of CaM, read-out: Km (NADPH, Hemoglobin capture)", "value": 8, "unit": "µM"},
      {"measurement": "Kcat (NADPH, Hemoglobin capture)", "setting": "eNOS [1]; NADPH dependence, in presence of CaM", "value": "0.283 ± 0.017", "unit": "s⁻¹"},
      {"measurement": "Kcat (Ca2+, Hemoglobin capture, 100 mM KCl)", "setting": "eNOS [1]; calcium activation, 250 nM CaM", "value": "0.967 ± 0.017", "unit": "s⁻¹"},
      {"measurement": "maximal turnover rate, FIG. 8C", "setting": "eNOS [1]; calcium-dependent NO production", "value": 58, "unit": "min1"},
      {"measurement": "maximal turnover rate, FIG. 8A", "setting": "eNOS [1]; calmodulin-dependent hemoglobin capture", "value": 22, "unit": "min⁻¹"},
      {"measurement": "Kcat (substrate Arginine, Hemoglobin capture)", "setting": "eNOS [1]", "value": "0.45 ± 0.017", "unit": "s⁻¹"},
      {"measurement": "Kcat (substrate Arginine, Hemoglobin capture)", "setting": "eNOS [1]; listed as wild type", "value": "0.45 ± 0.017", "unit": "s⁻¹"},
      {"measurement": "Kcat (CaM, L-Citrulline)", "setting": "eNOS [2]", "value": "0.367 ± 0.033", "unit": "s⁻¹"},
      {"measurement": "Kcat (CaM, L-Citrulline)", "setting": "eNOS [2]; listed as wild type", "value": 0.367, "unit": "s⁻¹"},
      {"measurement": "EC50", "setting": "eNOS [2]; EC50 for CaM, NOS activity", "value": 8, "unit": "nM"},
      {"measurement": "Kcat (CaM, Cytochrome c)", "setting": "cytochrome c", "value": "10.3 ± 1.3", "unit": "s⁻¹"},
      {"measurement": "Kcat (CaM, Cytochrome c)", "setting": "cytochrome c; listed as wild type eNOS", "value": 10.3, "unit": "s⁻¹"},
      {"measurement": "EC50", "setting": "cytochrome c; EC50 for CaM, listed as wild type, read-out: EC50 (CaM, Cytochrome c)", "value": 21, "unit": "nM"},
      {"measurement": "EC50", "setting": "cytochrome c; EC50 for CaM, read-out: EC50 (CaM, Cytochrome c)", "value": 13, "unit": "nM"},
      {"measurement": "EC50", "setting": "cytochrome c; EC50 for free calcium, read-out: EC50 (Ca2+, Cytochrome c, 100 mM KCl)", "value": 290, "unit": "nM"},
      {"measurement": "Km", "setting": "cytochrome c; absence of CaM", "value": 0.4, "unit": "µM"},
      {"measurement": "Km", "setting": "cytochrome c; presence of CaM", "value": 0.75, "unit": "µM"},
      {"measurement": "Kcat − CaM (NADPH, Cytochrome c)", "setting": "cytochrome c; absence of CaM", "value": "1.17 ± 0.083", "unit": "s⁻¹"},
      {"measurement": "Kcat − CaM (NADPH, Cytochrome c)", "setting": "cytochrome c; absence of CaM, listed as wild type eNOS", "value": 1.17, "unit": "s⁻¹"},
      {"measurement": "Kcat + CaM (NADPH, Cytochrome c)", "setting": "cytochrome c; presence of CaM", "value": "7.67 ± 0.3", "unit": "s⁻¹"},
      {"measurement": "Kcat + CaM (NADPH, Cytochrome c)", "setting": "cytochrome c; presence of CaM, listed as wild type eNOS", "value": 7.67, "unit": "s⁻¹"},
      {"measurement": "cytochrome c reduction, first value of pair (with superoxide dismutase)", "setting": "cytochrome c; absence of CaM", "value": "86 ± 6", "unit": "min⁻¹"},
      {"measurement": "cytochrome c reduction, second value of pair (without superoxide dismutase)", "setting": "cytochrome c; absence of CaM", "value": "95 ± 8", "unit": "min⁻¹"},
      {"measurement": "Kcat (Ca2+, Cytochrome c, 100 mM KCl)", "setting": "cytochrome c; calcium activation", "value": "31.82 ± 0.55", "unit": "s⁻¹"},
      {"measurement": "maximal turnover rate, FIG. 8D", "setting": "cytochrome c; calcium-dependent cytochrome c reduction", "value": 1930, "unit": "min⁻¹"},
      {"measurement": "maximal turnover rate, FIG. 8B", "setting": "cytochrome c; calmodulin-dependent cytochrome c reduction", "value": 620, "unit": "min1"},
      {"measurement": "reductase activity after calcium chelation with EGTA", "setting": "cytochrome c; highest concentration of EGTA", "value": "residual reductase activity was found"},
      {"measurement": "cytochrome c reduction with superoxide dismutase", "setting": "cytochrome c; presence of CaM", "value": "610 ± 51", "unit": "min⁻¹"},
      {"measurement": "cytochrome c reduction without superoxide dismutase", "setting": "cytochrome c; presence of CaM", "value": "866 ± 8", "unit": "min⁻¹"},
      {"measurement": "relative decrease in cytochrome c activity in the presence of superoxide dismutase", "setting": "cytochrome c; presence of CaM", "value": 30, "unit": "%"},
      {"measurement": "CaM-stimulated cytochrome c reduction", "setting": "cytochrome c; presence of CaM, n=3-5", "value": "749 ± 35", "unit": "min⁻¹"},
      {"measurement": "level of stimulation of cytochrome c reduction by CaM", "setting": "cytochrome c; with vs without CaM", "value": 8, "unit": "fold"},
      {"measurement": "NOS activity in lysates", "setting": "eNOS [3]", "value": "85.3±27.0 pmol L-citrulline generated/mg protein"},
      {"measurement": "phosphorylation of substrate by active Akt", "setting": "Akt [4]", "value": "115.4±3.8 pmol of ATP/nmol substrate"},
      {"measurement": "enhancement in phosphorylation on co-expression of Akt relative to non-stimulated cells", "setting": "Akt [5]", "value": 2, "unit": "fold"}
    ]}
  ]
}
